Measurements from patent US20050074865A1 (COMPOUND THERAPEUTICS, published 2005).
Where no end group is shown, it is not given here.

T1: biotinylated target peptide NH2-YPYDVPDYAGSGDYKAFD containing the high affinity HA epitope (also: biotinylated, position not given here)
T1 construct: also called the peptide
T1 peptide: YPYDVPDYAGSGDYKAFD

B1: scFvαHA, single chain antibody derived from monoclonal antibody mAb26/9 (address domain alone, expressed from pSecTag2A with C-terminal myc and His6 tags) (scFv, not shown: small tags and cut ends)
scFv: MEVQLLESGGDLVKPGGSLKLSCAASGFTFSTYGMSWVRQTPDKRLEWVATISNGGGYTYYPDSVKGRFTISRDNAKNTLYLQMSSLKSEDTAMYYCARRERYDENGFAYWGRGTLVTVSAGGGGSGGGGSGGGGSDIVMSQSPSSLAVSVGEKITMSCKSSQSLFNSGKQKNYLTWYQQKPGQSPKLLIYWASTRESGVPDRFTGSGSGTDFTLTISSVKAEDLAVYYCQNDYSHPLTFGGGTKLEIKRADAAPT
notes: also called scHA; scFv anti-HA
B2: sp55, full-length ecto-domain of human TNFR-1 (residues 30-211) with C-terminal myc and His6 tags, expressed from pSecTag2A (receptor)
chain: DAAQPARRAVRSLVPHLGDREKRDSVCPQGKYIHPQNNSICCTKCHKGTYLYNDCPGPGQDTDCRECESGSFTASENHLRHCLSCSKCRKEMGQVEISSCTVDRDTVCGCRKNQYRHYWSENLFQCFNCSLCLNGTVHLSCQEKQNTVCTCHAGFFLRENECVSCSNCKKSLECTKLCLPQIENVKGTEDSGTTRGGPEQKLISEEDLNSAVDHHHHHH
notes: also called sp55 address domain; p55FL

Legend:
[1] = molecular target: T1, biotinylated target peptide …; experiment: sandwich ELISA: component captured on anti-myc (mAb 9E10) plates, biotinylated peptide detected with streptavidin-HRP
Excerpt: Applicants assessed binding activity of various components using biotinylated peptides in a sandwich ELISA format. […] Bound peptides were quantified using a streptavidin-horseradish peroxidase detection system (Quantablue; Pierce, Rockford, Ill.).

[2] = molecular target: T2, S-TNF, human TNFα fusion protein with an N-terminal S-Tag (human, UniProt P01375 77-233); experiment: indirect ELISA: sp55 from conditioned medium captured on Ni-NTA wells, S-TNF at 1 µg/mL, detection with S-protein-HRP, absorbance at 370 nm
T2 construct: Made by the applicants; not shown: 15 amino acid S-Tag peptide (Novagen)
T2 sequence (P01375 77-233): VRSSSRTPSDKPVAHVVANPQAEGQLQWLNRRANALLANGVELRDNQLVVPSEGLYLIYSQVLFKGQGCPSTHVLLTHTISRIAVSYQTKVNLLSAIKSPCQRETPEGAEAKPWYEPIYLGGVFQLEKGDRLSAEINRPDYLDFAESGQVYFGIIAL

Binder	binding result [1]	fold elevation of S-TNF binding over non-specific binding in control samples [2] [fold]
B1	binds	–
B2	–	3
